Laboratory results: patent US20160355591A1
Where two headings read alike, the source gives them in different places. Blank lines part the entries; values can stand above or below the binder they belong to.

What was measured:
human serum complement [1] = assay: cell-based or functional assay
[2] = biological target: HLA-DR (human leukocyte antigen-DR) on human lymphoma and leukemia cells and human lymphocytes (human); assay: indirect flow cytometry, Namalwa cells, FITC-GAM 2nd Ab; none 2.91; control antibody (anti-CEA)
[3] = biological target: CD74 on human cells (human) (UniProt P04233); assay: REH (ALL) cells; no mAb 3.9
[4] = biological target: CD74 on human cells (human) (UniProt P04233); assay: Jeko-1 (MCL) cells; no mAb 14.3
[5] = biological target: CD74 on dog lymphocytes and dog lymphoma cells (dog); assay: flow cytometry, dog lymphoma aspirate; none 3.85
[6] = biological target: CD74 on human cells (human) (UniProt P04233); assay: Kasumi-3 (AML) cells; no mAb 9.6
[7] = biological target: CD74 on human cells (human) (UniProt P04233); assay: MN60 (ALL) cells; no mAb 8.1
[8] = biological target: CD74 on human cells (human) (UniProt P04233); assay: RS4;11 (ALL) cells; no mAb 6.4
[9] = biological target: CD74 on human cells (human) (UniProt P04233); assay: WAC (CLL) cells; no mAb 15.8
[10] = biological target: CD74 on human cells (human) (UniProt P04233); assay: indirect flow cytometry, Namalwa cells, FITC-GAM 2nd Ab; none 2.91
[11] = biological target: CD74 on human cells (human) (UniProt P04233); assay: MEC-1 (CLL) cells; no mAb 4.7
[12] = biological target: CD74 on human cells (human) (UniProt P04233); assay: 697 (ALL) cells; no mAb 4.9
[13] = biological target: CD74 on human cells (human) (UniProt P04233); assay: K562 (CML) cells; no mAb 3.2
[14] = biological target: CD74 on dog lymphocytes and dog lymphoma cells (dog); assay: flow cytometry, canine lymphoma aspirate 150836; none 3.4
[15] = biological target: CD74 on human cells (human) (UniProt P04233); assay: Granta-519 (MCL) cells; no mAb 15.3
[16] = biological target: CD74 on human cells (human) (UniProt P04233); assay: GDM-1 (AML) cells; no mAb 16.8
[17] = biological target: CD74 on dog lymphocytes and dog lymphoma cells (dog); assay: flow cytometry, canine lymphoma aspirate 150836; none 3.9
[18] = biological target: CD74 on dog lymphocytes and dog lymphoma cells (dog); assay: flow cytometry, dog lymphoma aspirate; none 3.37
[19] = biological target: CD74 on human cells (human) (UniProt P04233); assay: HC-1 (hairy cell leukemia) cells; no mAb 4.8
[20] = biological target: CD74 on human cells (human) (UniProt P04233); assay: Kasumi-1 (AML) cells; no mAb 18.2
[21] = biological target: T1, CD20 on dog lymphocytes and dog lymphoma cells (dog) (UniProt Q3C2E2); assay: flow cytometry, canine lymphoma aspirate 150836; none 3.2
T1 sequence (looked up): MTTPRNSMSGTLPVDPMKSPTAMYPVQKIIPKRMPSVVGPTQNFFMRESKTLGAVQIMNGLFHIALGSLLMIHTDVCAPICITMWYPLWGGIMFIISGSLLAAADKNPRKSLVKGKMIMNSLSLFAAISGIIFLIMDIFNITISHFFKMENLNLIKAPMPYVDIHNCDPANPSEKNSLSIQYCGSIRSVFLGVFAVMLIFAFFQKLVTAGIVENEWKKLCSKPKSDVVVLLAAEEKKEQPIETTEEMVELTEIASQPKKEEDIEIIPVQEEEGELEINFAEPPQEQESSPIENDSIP

[22] = biological target: T2, CD20 on human cells (human) (UniProt P11836); assay: indirect flow cytometry, Namalwa cells, FITC-GAH 2nd Ab; none 2.52
T2 sequence (looked up): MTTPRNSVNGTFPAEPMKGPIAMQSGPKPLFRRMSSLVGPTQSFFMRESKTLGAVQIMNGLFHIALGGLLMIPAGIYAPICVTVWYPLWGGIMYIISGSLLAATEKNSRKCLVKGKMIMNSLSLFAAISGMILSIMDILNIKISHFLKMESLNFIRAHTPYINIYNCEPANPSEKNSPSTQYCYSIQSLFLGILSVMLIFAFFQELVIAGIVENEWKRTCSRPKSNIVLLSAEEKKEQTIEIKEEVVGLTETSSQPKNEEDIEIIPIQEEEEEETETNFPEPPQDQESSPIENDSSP

[23] = biological target: T2, CD20 on human cells (human); assay: indirect flow cytometry, WSU-FSCCL cells, FITC-GAH Fc 2nd Ab; none 2.7
[24] = biological target: T2, CD20 on human cells (human); assay: indirect FACS, Namalwa cells, FITC-GAH Fc 2nd Ab; none 2.5
[25] = biological target: T2, CD20 on human cells (human); assay: indirect FACS, WSU-FSCCL cells, FITC-GAH Fc 2nd Ab; none 2.6
[26] = biological target: T2, CD20 on human cells (human); assay: indirect flow cytometry, Daudi cells, FITC-GAH Fc 2nd Ab; none 3.2
[27] = biological target: T2, CD20 on human cells (human); assay: indirect FACS, Ramos cells, FITC-GAH Fc 2nd Ab; none 3.1
[28] = biological target: T1, CD20 on dog lymphocytes and dog lymphoma cells (dog); assay: flow cytometry, canine lymphoma aspirate 150836; none 4.5
[29] = biological target: T2, CD20 on human cells (human); assay: indirect FACS, Raji cells, FITC-GAH Fc 2nd Ab; none 6.8
[30] = biological target: T2, CD20 on human cells (human); assay: indirect flow cytometry, SU-DHL-6 cells, FITC-GAH Fc 2nd Ab; none 4.6
[31] = biological target: T1, CD20 on dog lymphocytes and dog lymphoma cells (dog); assay: flow cytometry, dog lymphoma aspirate; none 3.24
[32] = biological target: T2, CD20 on human cells (human); assay: indirect FACS, SU-DHL-6 cells, FITC-GAH Fc 2nd Ab; none 4.6
[33] = biological target: T2, CD20 on human cells (human); assay: indirect flow cytometry, Ramos cells, FITC-GAH Fc 2nd Ab; none 3.1
[34] = biological target: T2, CD20 on human cells (human); assay: indirect flow cytometry, Namalwa cells, FITC-GAH Fc 2nd Ab; none 2.6
human serum complement [35] = assay: cell-based or functional assay; remark: listed apart in the source
[36] = biological target: T1, CD20 on dog lymphocytes and dog lymphoma cells (dog); assay: flow cytometry, dog lymphoma aspirate; none 4.48
[37] = biological target: T2, CD20 on human cells (human); assay: indirect flow cytometry, Raji cells, FITC-GAH Fc 2nd Ab; none 6.9
[38] = biological target: T2, CD20 on human cells (human); assay: indirect flow cytometry, RL cells, FITC-GAH Fc 2nd Ab; none 2.4
[39] = biological target: T2, CD20 on human cells (human); assay: indirect FACS, Daudi cells, FITC-GAH Fc 2nd Ab; none 3.1

CD74 on human cells (human), sequence (P04233 whole entry): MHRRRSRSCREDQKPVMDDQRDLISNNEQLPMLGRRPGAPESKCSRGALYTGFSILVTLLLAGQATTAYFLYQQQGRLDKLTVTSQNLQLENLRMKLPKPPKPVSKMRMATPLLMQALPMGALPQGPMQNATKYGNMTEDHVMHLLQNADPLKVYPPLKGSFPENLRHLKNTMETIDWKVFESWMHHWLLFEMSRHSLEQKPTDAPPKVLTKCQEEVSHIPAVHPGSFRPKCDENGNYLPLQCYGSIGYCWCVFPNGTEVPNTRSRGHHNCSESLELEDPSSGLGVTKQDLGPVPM

B1: hL243 (humanized L243 anti-HLA-DR antibody, IgG1/K isotype) (antibody, V domains shown)
VH: QVQLQQSGSELKKPGASVKVSCKASGFTFTNYGMNWVKQAPGQGLKWMGWINTYTREPTYADDFKGRFAFSLDTSVSTAYLQISSLKADDTAVYFCARDITAVVPTGFDYWGQGSLVTVSS
VL: DIQLTQSPSSLSASVGDRVTITCRASENIYSNLAWYRQKPGKAPKLLVFAASNLADGVPSRFSGSGSGTDYTFTISSLQPEDIATYYCQHFWTTPWAFGGGTKLQIKR
- complement-mediated cytotoxic effect on Daudi cells (CDC, resazurin viability), EC50 (human serum complement [1]): 2.6 nM

- geometric mean fluorescence [2]: 3.32
B2: MN-14 (murine anti-carcinoembryonic antigen mAb) (antibody, from a related filing, V domains shown)
VH: EVKLLESGGGLVQSGGSLKLSCAASGFDFTTYWMSWVRQAPGKGLEWIGEIHPDSSTINYAPSLKDKFIVSRDNAKNTLYLQMSKVRSEDTALYYCASLYFGFPWFAYWGQGTPVTVSA
VL: EIQLTQSHKMMSTSVGDRVSITCKASQDVGTSVAWYQQRPGQSPKLLIYWTSTRHTGVPDRFTGSVSGTDFTLTITNVQSEDLADYFCQQYSLYRSFGGGTKLEIK

- mean FL [3]: 61.1
- mean FL [4]: 32.7
- % Positive [5]: 6.69%
- mean FL [6]: 18.4
- mean FL [7]: 25.9
- mean FL [8]: 24.3
- mean FL [9]: 43.6
- geometric mean fluorescence [10]: 17.3
- mean FL [11]: 44.7
- mean FL [12]: 20.6
- mean FL [13]: 7
- mean FL [14]: 4
- mean FL [15]: 50.8
- mean FL [16]: 69.5
- % Positive [17]: 6.7%
- mean FL [18]: 4.01
- mean FL [19]: 36.7
- mean FL [20]: 23.8
B3: LL1 (murine anti-human CD74 mAb) (antibody, from a related filing, V domains shown)
VH: QIQLVQSGPELKKPGETVKVTCKTSGYTFTNYGVNWIKQTPGEGLQWMGWINPNTGEPTFDDDFKGRFAFSLESSASTAFLQISNLKNEDMGTYFCSRSRGKNEAWFAYWGQGTLVTVSE
VL: DVVMTQTPLSLPVSLGDQASISCRSSQSLVHRNGNTYLHWYLQKPGQSPKLLIYTVSNRFSGVPDRFSGSGSGTDFTLKISRVEAEDLGLYFCSQSSHVPPTFGAGTKLEI

- mean FL [21]: 3.3
- geometric mean fluorescence [22]: 6.28
- geometric mean fluorescence [23]: 8.9
- geometric mean fluorescence [24]: 10.1
- geometric mean fluorescence [25]: 8.91
- geometric mean fluorescence [26]: 241
- geometric mean fluorescence [27]: 204
- % Positive [28]: 4%
- geometric mean fluorescence [29]: 267
- geometric mean fluorescence [30]: 1200
- mean FL [31]: 3.25
- geometric mean fluorescence [32]: 1200
- geometric mean fluorescence [33]: 204
- geometric mean fluorescence [34]: 10.1
- % Positive [36]: 3.96%
- geometric mean fluorescence [37]: 267
- geometric mean fluorescence [38]: 128
- geometric mean fluorescence [39]: 241
B4: hA20 (veltuzumab, humanized anti-CD20 IgG1) (antibody, INN chains, looked up, V domains shown, part only)
VH: QVQLQQSGAEVKKPGSSVKVSCKASGYTFTSYNMHWVKQAPGQGLEWIGAIYPGMGDTSYNQKFKGKATLTADESTNTAYMELSSLRSEDTAFYYCARSTYYGGDWYFDVWGQGTTVTVSS
VL: DIQLTQSPSSLSASVGDRVTMTCRASSSVSYIHWFQQKPGKAPKPWIYATSNLASGVPVRFSGSGSGTDYTFTISSLQPEDIATYYCQQWTSNPPTFGGGTKLEIKR
- complement-mediated cytotoxic effect on Daudi cells (CDC, resazurin viability), EC50 (human serum complement [35]): 0.66 nM
